Test results taken from the DeepSol protein solubility set.

Test: soluble on expression in E. coli; label from the status in PepcDB or PDB records
For “MTKMSITVNQTVLHQLVKNVDGDSIKMESVLRDELLSITPEVEQMMLQLHQSYQNKAKAFGVFQEKSIFAQHLNRLLEQEIEFLGFSQYSTKLLADELGKYNFAESGTLILCQYNFLATDYLFIALLDSRHSMLVDEHLDIRRTEYLDITQFDIAARINLTDLQVNANSNRYLTFIKGRVGRKISDFFMDFLGAEEGLNPQVQNQCLLQAVSDYCDQGELNKEQTQAVKKQVFEYCKGQLSNGNNIELRELSDSLPTLNEQPFVVFTEKQNYGLEESIPPIRSTLKSLTKFSGSGKGVTLSFDAELLNTRIQWDPMTDTLTIKGLPPNLKDQLQKALKSEN”, the “soluble on expression in E. coli” value was “not soluble”. For “MTKSILLVGVGGQGTILASKLLTMGLMEAGYDVKMSEIHGMSQRGGSVSSQVRYGDCVHSPVIEIGGADILVSFEKMEALRWFNYLKPEGKALVNNHRIDSMTVLIGGAEYQESDIDAELSRLNAKVINAADKAEELGNSKIMNVILLGCLVKSMQLESIDWEKIISENVKPKFVELNIKAFHEGMEMVSK”, the “soluble on expression in E. coli” value was “not soluble”. In the case of “MTKSRKQKQKKQDFLRKKLKVGKPKEKARNATDTSFVSKTISIRNQHLDQNPHDLTKRLTLLKHHNINVRKETLTTFQKSIPSIIKSRLMTPLLTQSIPLICDESQQVRQGLIDLVDEIGSHDAEILKLHCNIFVLYINMAMTHIVTQIQADSTKFLSHLLKYCGDEVVRKSWVKLLNGVFGVLGWGQVGKNDSASIVQTKKRNAKYVTIHLNALYTLVEYGCQDERARSDGDTAETTEDSGTLRNPYLIPDYPQPFEHLKLFTRELKVQDATSSGVNATLLSLATQDIDTRKAVFIEQFLPIVRKKIEVIIKEGGECGKSANKLKTLLAKIFD”, the “soluble on expression in E. coli” value was “soluble”. In the case of “MTKTLETQPEEKTVFLCKETNPDFLGREIYADNVETPYNFYLIRKLYLAKEYQNLAEGEQFFEALCESWDESEQFEELIVKKIYVYVETELMYYTVYFGSFEPTTRDLRSALKQWMYEIPTTKNKKTVRMNETNVQVVPQENQLTELAGEIAVLREMLTLLKENLASLNEAVNQTRNPVISRQIKTIHLKRASPVIAAEQASLKVSEDTNLEQPDVNLSPDNRENQEGETTVATSEPAPIKEALPEKKQENQQSTAAKPLFTFPQETEKSSLNSVNKSAEKEEEQKPEKEAVSMESEKENSSSRTIPADFQRQLDELEEEIYRRFMSRHLEDTDGNQAVPKITIEKRQLEAQMFEAKAFSQSFKQVQKKKAGDVRICNQLSCMKLEKGLDKFLDEVTEYVEKRTLFNKKVRCPLPVIRELEGYGQLNQYMQKILDCY”, the “soluble on expression in E. coli” value was “not soluble”. With “MTLAVLASRAIAGWQAPAVRVETHLGSGLPAFAIVGLPDVEVRESRERVRAAIQNSGFDFPPGRITVNLSPADLPKASARFDLPIALGILLASGQVAASAAQTAALPDCVWAAELSLSGALVPLAAPLALALAVAREQPGATLVLPAGSAAVAAWVPGIRVLAAHTLGEAAAYLAGHAELAPAERRSWPEAEPGPCLSDVRGQPAARRALEVAAAGGHSLLMCGPPGAGKSMLAQRLPGLLPPLEQRQALEVAAIAGAGGAPEVLRGQPPFRAPHHSASAAALVGGGARPRPGEISLAHHGVLFLDELPEFERRALESLREPLETGKVVISRALHSVEYPAVFQLVAAMNPCPCGWRGHASKACRCTPDQVRRYAARVSGPLVDRIDLWIELPATEPQWLAEPPGEPSLPVRERVARCRQRQLARQGCLNAKLSGPALDAHCALGAAARTLLQQAMRRLGGSARAAHRALRVARTLADLAHEPEIGAAHIAEAVQYRRPT” the “soluble on expression in E. coli” value was “not soluble”. With “MTLDYIYHSGFAIEAEGVTVIIDYYKDSSETEHNRGIVHDYLLQRPGKLYVLATHFHPDHFNREILTWKEARPDIRYIFSKDILKSHRAKPEDATYIKKGETYEDETIRIEAFGSTDVGSSFLIHLQDWNIFHAGDLNNWHWSEESTEAEIRKANGDFLAEVKYLKEKAPKIDLALFPVDRRMGKDYMKGAKQFIEQIKTTIFVPMHFSEDYEGGNALRDFAENAGCRFVSITHRGESFEITK” the “soluble on expression in E. coli” value was “not soluble”. For “MTLEQQDRTEQQLAALNAQVRQDLCYLNYPAANWSKPVSTSDGQLVSDVVIIGGGMCGLVAWHALTRAGIANIRIVDRAAKGEEGPWVTYARMETLRSPKNLLGPALGMASLTFRAWYTARFGKEAWEELFRIPRPMWMEYLSWYRQVMEIPVENNIHVTRVIPRLDGLLELEIEGGKADPIITRKLVMATGRDGLGEPTIPDFVKGMPRHVSWAHSADMIDFQRLKGKRVVVIGVGASAVDNAAEALEQGAGEVRLLARRKTMPTINKLMGIGSYGVTAGFAKIDPEWRWRLMDYSVKQQTPAPHNSTLRVSRHSNAYFHFDCGIQSMKEEGGEVVITTINGRVFRTDFVILGTGFSIDPVSRPELEMFNGQIACWEDRYTPPAGEENPGLGRFPWLQDDFSFTEKEPGAAPWLQHIHCFNYGSSVSLGKVSGDIPAISEGALWLARGIAASLFIADIDHHWEALKAYEKPELDGSEWTDADADPSMQKTALEHHHHHH”, the “soluble on expression in E. coli” value was “soluble”. In the case of “MTLKNNILPLLMLSCCFVLAACSSSNSASASASNKNKNMEPNKGRYSLKNDKMPLNPPNVDHVPNATPKYEPYSRRGNKPYTVYGESYTVLNSGEGFSETGRASWYGEKFHGYETSNGEPYDMYGMSGAHKTLPLPSYARVTNLDNNKQVIIRINDRGPFHSERILDLSYAAAYKLGMLGTGTARIKLDVIYIGSKAATQSAIASVHSSGNHYIQLVASKDKQRLHKMAKDLEKKYQVKTRVQPANNMFRLQLGPIGQAELADRLLIKVKQDGYPAGYIVSEK”, the “soluble on expression in E. coli” value was “not soluble”. For “MTLMIDENFKKQLAQRRERVEDLFYFENSKEIGRGTYGLVYKAVPKKQNGQFPNKEYALKMIEGQGFSMSACREIALFRELRHPNLICLQRVFLTNEKKVWLLLDYAEHDLWHVIKHHRTAKSKKVPIMVPRNMVKNILFQILSGMHYLHSNWVLHRDLKPANILLMGDGPPDMRGRVKIADLGFSRIYANPLKPMAELDPVVVTFWYRAPELLLGAKHYTKAIDVWAIGCIFAELLTAEPLFFCKEEDIKAQNPYHYDQVKRIFHLLGYPSDADWPDMKKMPDHQRLLSDARNEGTPIQTFPNSLHRYFDKWKINSQSSPYRLLVKLLTVDPTKRVSCEEAMNDIYFRKMERPPRETDDVFNKYPIPYAKKEQQMTVAPDQAQQQHQQQQVQMQQQPQMGQQQMMGQPQMVQPQMGQPPMGGAHPGVVAPDGHPHQMMQQQQHPQQHHMQYQGMHDPMQGGMDEGPQAKMMRMGNVPVGRYAPMPPPYGAPQDYHPQQGPPMVQMMQQPGPSGYYPQRPGQPTGAVPGPGPQGYMNPQMGMQMGMRAPGVPPQGYMPGRGMAPPQMGQQQPGPNQQQQQQWQQQYHR”, the “soluble on expression in E. coli” value was “not soluble”. In the case of “MTLNIQGIAASSGIAIAKAFRLENPEFNIEQKSITNEAAEIARLEAALEKAKTELEAIKDHAFAELGADKAAIFEAHLLVLNDPELVNPVKDKVNSEKVNAEFAMDEVASMFISMFENMDNEYMKERAADIRDVTKRVLAHLLGINFSNPGTNSEEVIIIAEDLTPSDTAQLNRKYAKGFTTDIGGRTSHSAIMARSMEIPAVVGTKVVMEKIQNGDIVIIDGLDGEVIVNPSEETLRSFEEKKAKFEEQKAEWAKLKDQATVTSDGHHVELVANIGTLNDVQGIIDNGGEGVGLYRTEFLYMGRDNLPTEEEQFEAYKAVLEGVKEGQPVVVRTLDIGGDKELPYLHLPKEMNPFLGYRAIRLCLDEQDVFRTQLRALLRASVYGNLKIMFPMIATLDEFRQAKAILLEEKAKLVEVGTTVSDSIEVGMMVEIPASAVLADQFAKEVDFFSIGTNDLIQYTMAADRMNEQVSYLYQPYNLSILRLVKMVIDAAHKEGKWAGMCGEMAGDSLAIPLLLGLGLDEFSMSATSILPARTQLSKLSKAEMETLAEKALMMSTAEEVVELVKSI”, the “soluble on expression in E. coli” value was “not soluble”. With “MTLSFDDAAATVKTLKTSPSNDELLKLYALFKQGTVGDNTTDKPGMFDLKGKAKWSAWDEKKGLAKDDAQKAYVALVEELIAKYGA” the “soluble on expression in E. coli” value was “soluble”. In the case of “MTLTQEKRSYMEKLSDENGIISALAFDQRGALKRLMAQYQTQEPTIAQMEELKVLVAEELTPYASSMLLDPEYGLPAAKHLDKNAGLLLAYEKTGYDTTSTKRLPDCLVEWSAKRLKKQGADAVKFLLYYDVDGDEEVNQQKQAYIERIGSECKAEDIPFFLEILAYDETITDAASVEYAKVKPHKVLDAMKVFSDERFGIDVLKVEVPVNMKYVEGFGDGPIVHTQDQAANFFKQQDQATPLPYIYLSAGVSAKLFQDTLVFAKESGANFNGVLCGRATWAGSVKDYIEKGEAAARQWLRTEGFKNIDELNKVLKATATSWKER”, the “soluble on expression in E. coli” value was “soluble”. In the case of “MTLTVSPTAARTPAEEKARFEGNKLAKRLARETTRAIADYNMIEAGDKVMVCLSGGKDSYALLDILLSLQKRAPFAFEIIAVNLDQKQPGFPPEILPGYLRALGVPFHIETQDTYSIVTRVIPEGKTMCSLCSRLRRGILYRVASELGATKIALGHHRDDILGTFFLNLFYGGKAKGMPPKLVSDDGRHTVIRPLAYVPESDLIAYAQFKQFPIIPCNLCGSQENLKRKEVGRMIQEWDRKHPGRSWNVFNALSRVVPSHLMDRDLFDFVGLKPTGVADAGGDTAFDQIDPEPDTAGPGCASDAPAGQADGMAEQRVVFR”, the “soluble on expression in E. coli” value was “not soluble”. In the case of “MTLYIGMNNTSGKAITDIDHLRQSVRDILLTPQGSRIARREYGSLLSALIDQPQNPALRLQVMSAVYVALSRWEPRLTLDSITINSHFDGSMVVELAGRRNNGVPVSLSVSTGAENGSD”, the “soluble on expression in E. coli” value was “not soluble”. In the case of “MTLYVNLAELLGSRIENGFYRPGDRLPSVRALSVEHGVSLSTVQQAYRVLEDSGLAAPKPKSGYFVSVSRHAPALPAVGRPAQRPVDISQWDQVLDLIRVAPREAVTQLGRGMPDVTSPTLKPLMRALGQLSRHQDMPGLYYDNIYGVLRLREQVARLMLDSGCNLTANDVIITNGCHEALSASVRAICSPGDIVAVDSPSFFGAMQTLKGVGMKALEIPTDPLTGISLEALELALEQWPIKVIQLTPNCNNPLGYVMPEARKRALLTLAQRFDVAIIEDDVYGDLAYNYPRPRTIKSFDEDGRVLLCSSFSKTLAPGLRIGWVAPGRYLERVLHMKYIGTGSTAPQPQLAIADFLEGGHYEPHVRRMRTQYQRSRDQMIDWVMRYFPEGTRASRPQGSFMLWVELAEDFDTLRLNRALLDKGVQIAVGSIFSASGKYRNCMRLNYAAKSSREIESAVRIVGETIAQLIAQSD”, the “soluble on expression in E. coli” value was “not soluble”. With “MTMQLIGKKSFPRKANRGAKTRNPSIYWNYRQFICSSSSGYPIPMNFSDEFDFDEDRVYEMLCSDDENTTDYSDEIIAIIDANMRSLWIFQL” the “soluble on expression in E. coli” value was “not soluble”. In the case of “MTNAALDDKTIVRDYFNSTGFDRWRRIYGDGQVNFVQKDIRVGHQQTVDSVVAWLVADGNLPGLLVCDAGCGVGSLSIPLAQAGALVYGSDISEKMVGEAQQKAQEVLAYGNQPTFMTQDLAQLGGKYDTVICLDVLIHYPTEEASAMISHLASLADRRLILSFAPKTLGLTVLKKIGGLFPGPSKTTRAYQHKEADIRKILGDNGFSIARTGMTSTRFYYSRILEAVRSLEHHHHHH”, the “soluble on expression in E. coli” value was “not soluble”. For “MTNKEIKKLCRSFGADLVGVASVERFVNAPKGYHPTDVMPTAKSVISLGMVLPKDILEQDIRTYTDIRNEAVKKMDKVAADVAAELKGLKYKAVSIVSLSGKFVDGHFRSRVSLKHAAELAGLGVIARNYLLTNDKYGNLLWFTAVVTSLELEPDPLATYQVCNNCNLCVDLCPSGALTDENNFSQKGCRKVCYITVKGVLELRCWQCRNVCPYKHGIND”, the “soluble on expression in E. coli” value was “not soluble”.
